From publication PMC3460868, “Crosstalk of Escherichia coli FadR with Global Regulators in Expression of Fatty Acid Transport Genes”

Tests used:
Conditions in all cases: protein: recombinant; tags: His6 (pET28); chain copies: 2; label: DIG-ddUTP 3' (terminal transferase); blunt
FadR [1] = target: T1, FadR (Escherichia coli, UniProt P0A8V6 1-239); assay: EMSA; essentially complete binding by 50 nM FadR; Roche binding buffer (composition not given), 15 min, room temperature; FadR: 0.1 pmol probe in 10 ul, 0-10 pmol protein, 7% native PAGE; CRP: 0.6 pmol probe in 20 ul (legend; Methods say 0.1 or 0.2 pmol), 5-20 pmol protein, 6.5% native PAGE
T1 sequence (P0A8V6 whole entry): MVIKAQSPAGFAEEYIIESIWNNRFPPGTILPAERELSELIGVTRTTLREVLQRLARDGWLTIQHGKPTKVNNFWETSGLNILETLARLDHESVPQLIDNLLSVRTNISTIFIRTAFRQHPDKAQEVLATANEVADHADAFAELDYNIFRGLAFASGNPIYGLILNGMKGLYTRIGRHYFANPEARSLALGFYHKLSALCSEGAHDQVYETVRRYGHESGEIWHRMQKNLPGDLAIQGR

CRP = CRP (Escherichia coli, UniProt P0ACJ8 1-210); assay: EMSA; cAMP (200 pmol in 20 ul); Roche binding buffer (composition not given), 15 min, room temperature; FadR: 0.1 pmol probe in 10 ul, 0-10 pmol protein, 7% native PAGE; CRP: 0.6 pmol probe in 20 ul (legend; Methods say 0.1 or 0.2 pmol), 5-20 pmol protein, 6.5% native PAGE
Sequence of CRP (P0ACJ8 whole entry): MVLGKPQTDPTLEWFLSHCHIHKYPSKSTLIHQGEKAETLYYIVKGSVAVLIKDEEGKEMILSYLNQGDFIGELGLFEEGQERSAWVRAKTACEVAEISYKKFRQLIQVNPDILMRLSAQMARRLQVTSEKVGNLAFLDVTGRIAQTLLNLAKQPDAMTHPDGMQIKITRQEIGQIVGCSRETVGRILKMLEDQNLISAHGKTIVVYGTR

FadR [2] = target: T1, FadR; assay: EMSA; affinity comparable to the fadL sites; Roche binding buffer (composition not given), 15 min, room temperature; FadR: 0.1 pmol probe in 10 ul, 0-10 pmol protein, 7% native PAGE; CRP: 0.6 pmol probe in 20 ul (legend; Methods say 0.1 or 0.2 pmol), 5-20 pmol protein, 6.5% native PAGE

Binder	binding result (CRP)	other results
fadL FadR site 1 (dsDNA) DNA 1: GCAACATTCCAGCTGGTCCGACCTATACTCTCGCC DNA 2: GGCGAGAGTATAGGTCGGACCAGCTGGAATGTTGC	–	binding result (FadR [1]): binds
fadD CRP site (dsDNA) DNA 1: GTAAAGATAAAAATAAATAGTGACGCGCTTCGCAACCTTTTCGTTGGG DNA 2: CCCAACGAAAAGGTTGCGAAGCGCGTCACTATTTATTTTTATCTTTAC	binds	–
fadH CRP site 1 (probe 1) (dsDNA) DNA 1: GTAACCTGGATAAAACGCGACAAGCGTCGCATCCGGCGTTATCACCGG DNA 2: CCGGTGATAACGCCGGATGCGACGCTTGTCGCGTTTTATCCAGGTTAC	binds	–
fadH CRP site 2 (probe 2) (dsDNA) DNA 1: CACCGGGCGTATTCTTTTTGAATCCCATCACAAACCCCGCACTCC DNA 2: GGAGTGCGGGGTTTGTGATGGGATTCAAAAAGAATACGCCCGGTG	binds	–
fadL CRP site 2 (probe 2) (dsDNA) DNA 1: CCCTACACTTCGCGCTCCTGTTACAGCACGTAACATAGTTTGTATAAAAATAAATC DNA 2: GATTTATTTTTATACAAACTATGTTACGTGCTGTAACAGGAGCGCGAAGTGTAGGG	no binding	–
fadL FadR site 2 (dsDNA) DNA 1: CTCTCGCCACTGGTCTGATTTCTAAGATGTACCTC DNA 2: GAGGTACATCTTAGAAATCAGACCAGTGGCGAGAG	–	binding result (FadR [1]): binds
fadD FadR site 1 (dsDNA) DNA 1: GTAATTATCAAGCTGGTATGATGAGTTAATATTATG DNA 2: CATAATATTAACTCATCATACCAGCTTGATAATTAC	–	binding result (FadR [2]): binds
